Experimental data published in the nanobody polyreactivity screen of Harvey et al. (2022).

Experiment: yeast display, Sf9 membrane polyspecificity reagent, FACS + sequencing; frameworks hold sequencing errors
In short: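 Synthetic nanobody libraries on Saccharomyces cerevisiae BJ5465 were galactose-induced for 36–48 hours, stained 1 hour at 4 °C with 10% biotinylated, detergent-solubilized Sf9 membrane reagent and enriched on streptavidin microbeads. FACS then separated cells into low and high (top ~1%) gates by anti-HA (expression) and streptavidin (reagent binding) fluorescence. Genes were colony-PCR amplified, MiSeq 2 × 250 sequenced and CDR-length filtered. A clone's polyreactivity label is that of its gate of origin.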
In the case of “QVQLVESGGCLVQAGGSLRLSCAASGRTYQNNAMGWYRQAPGKERELVAAISRSGASTYYADSVKGRFTISRDNAKNTVYLQMNSLKPEDTAVYYCAARYPRTAYDYWGQGTQVTVSS”, the “polyreactivity (PSR sort gate)” value is reported as “low polyreactivity”. With “QVQLVESGGCLVQAGGSLRLSCAASGSIFDYNAMGWYRQAPGKEREFVAAISSSAGSTYYADSVKGRFTISRDNAKNTVYLQMNSLKPEDTAVYDCAADWYDFSFPYYEYEYWGQGTQVTVSS” the “polyreactivity (PSR sort gate)” value was “low polyreactivity”. In the case of “QVQLVESGGCLVQAGGSLRLSCAASGSIFDYNAMGWYRQAPGKEREFVAAISSSAGSTYYADSVKGRFTISRDNAKNTVYLQMNSLKPEDTAVYYCAADWYDFSFPYYEYEFWGQGTQVTVSS”, the “polyreactivity (PSR sort gate)” value is reported as “low polyreactivity”. In the case of “QVQLVESGGCLVQAGGSLRLSCAASGSIFEYYAMAWSRQAPGKERELVAAINSGDITKYADSVKGRFTISRDNAKNTVYLQMNSLKPEDTAVYYCAKRLSSREYYWGQGSQVTVSS”, the “polyreactivity (PSR sort gate)” value is reported as “high polyreactivity”. For “QVQLVESGGCLVQAGGSLRLSCAASGSIFSGNAMGWYRQAPGKERELVAAISRSGGSKYYADSVKGRFTISRDNAKNTVYLQMNSLKPEDTAVYYFAAYRTHGPPRAIRFDYWGQGTQVTVSS”, the “polyreactivity (PSR sort gate)” value was “high polyreactivity”. With “QVQLVESGGCLVQAGGSLRLSCAASGSIFSLYAMGWYRQAPGKEWEFVASISRSGGITYYADSVKGRFTISRDNAKNTVYLQMNSLKPEDTAVYYCAAVGWVSYRRYDYWGPGTQVTVSS” the “polyreactivity (PSR sort gate)” value was “high polyreactivity”. For “QVQLVESGGCLVQAGGSLRLSCAASGSIFSRNVMGWYRKAPGKERELVAAITGSGGRTYYADSVKGRFTISRDNAKNTVYLQMNSLKPEDTAVYYCAKSRPGTYDYWGPGTQVTVSS”, the “polyreactivity (PSR sort gate)” value was “high polyreactivity”. For “QVQLVESGGCLVQAGGSLRLSCAASGSIGTYVMGWYRQAPGKQRELVAAITSNGGRKYYADSVKGRFTISRDNAKNTVYLQMNSLKPEDTAVYYCATVNYSPRYTMYYWGQGTQVTVSS”, the “polyreactivity (PSR sort gate)” value was “high polyreactivity”. For “QVQLVESGGCLVQAGGSLRLSCAASGSIINYYAMGWFRQAPGKERELVAGITTSGGSTYYADSVKGRFTISRDNAKHTVDLQMNSLKPEDTAVYYCAAYDYSSSTYFLDDYWGQGTQVTVSS”, the “polyreactivity (PSR sort gate)” value was “low polyreactivity”. For “QVQLVESGGCLVQAGGSLRLSCAASGSILATNVMGWYRQSPGKESQFVAAISSGGSTNYADSVKGRFTISRDNAKYTVYLQMNSLKPEDTAVYYCATSSIWGSGRVRWVSYYYWGQGSQVTVSS”, the “polyreactivity (PSR sort gate)” value was “low polyreactivity”. In the case of “QVQLVESGGCLVQAGGSLRLSCAASGSLFKPYAMGWYIQAPGKEREFVAAINRGGTSTYYADSVKGRFTIARDNAKNTVFLQMKSLKPEDTAVYYCNAESPYYADGDTVRDDYWGQGTQVTVSS”, the “polyreactivity (PSR sort gate)” value is reported as “low polyreactivity”. With “QVQLVESGGCLVQAGGSLRLSCAASGSTFNKYAMGWYRQAPGKERELVAAIRSNGVRTYYADSVKGRFSISRDNAKNTVYLQMNSLKPEDTPVYYCNKRYTYRYDYWGQGTQVCVSS” the “polyreactivity (PSR sort gate)” value was “high polyreactivity”. With “QVQLVESGGCLVQAGGSLRLSCAASGSTFNYYAMGWYRQAPGKERELVAAISSSGGRTYYADSVKGRFTISRDNAKNTVYLQMNSLKPEDTAVYYCNARTYSYRGYNYWGQGTQVTVSS” the “polyreactivity (PSR sort gate)” value was “high polyreactivity”. With “QVQLVESGGCLVQAGGSLRLSCAASGSTFPIYAMGWYRQAPGKERELVARITWNGGRTYYADSVKGRFTISRDNAKNTVYLQMNSLKPEDTAVYYCNARRYLRGYGYGYWGQGTQVTVSS” the “polyreactivity (PSR sort gate)” value was “high polyreactivity”. In the case of “QVQLVESGGCLVQAGGSLRLSCAASGSTFRWNSIGSYRQAPVKEREFVASITSGGSTNYADSVKGRYTISRDIAKNTVYLQMNSLKPYDTAVYYCNADVRRSSYYVWLYDYWGQGTQVTVSS”, the “polyreactivity (PSR sort gate)” value is reported as “low polyreactivity”. With “QVQLVESGGCLVQAGGSLRLSCAASGSTFYDYDMGWYRQAPGKERELVAAISSSVSTYYADSVKGRFTISRDNAKNTVYFQMNSLKPEDTAVYYCAADYTGVWRYDYWGQGTQVTVSS” the “polyreactivity (PSR sort gate)” value was “low polyreactivity”.
